Patent EP1255844B1 (MILLENNIUM PHARMACEUTICALS, INC., dated 2007)
Several values for one entry are separate records, joined by “and”; a condition that tells them apart may be missing. Equal entries are not always repeated.

Columns and labels:
[1] = molecular target: T1, human CC-chemokine receptor 2 (CCR2) as naturally expressed on THP-1 cells, THP-1 cell membranes, fresh human … (human, UniProt P41597 1-374); assay: competition with 0.1 nM [125I]MCP-1 on THP-1 cell membranes, filtration and scintillation counting
T1 construct: whole, on cells; In one assay membranes of THP-1 cells were used instead of whole cells; also called CKR-2; MCP-1RA
T1 sequence (P41597 whole entry): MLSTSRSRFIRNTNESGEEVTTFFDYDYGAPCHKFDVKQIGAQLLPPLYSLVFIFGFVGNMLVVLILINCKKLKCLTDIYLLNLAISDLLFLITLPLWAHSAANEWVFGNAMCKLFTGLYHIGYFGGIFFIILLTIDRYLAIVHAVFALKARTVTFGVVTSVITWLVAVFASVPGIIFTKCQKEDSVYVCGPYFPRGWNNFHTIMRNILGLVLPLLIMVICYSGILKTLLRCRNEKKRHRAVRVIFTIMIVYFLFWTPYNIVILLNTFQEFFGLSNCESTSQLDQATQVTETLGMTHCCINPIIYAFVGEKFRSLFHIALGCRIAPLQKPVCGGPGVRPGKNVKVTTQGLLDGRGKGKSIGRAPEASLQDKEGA

[2] = molecular target: T1, human CC-chemokine receptor 2 (CCR2) as …; assay: competition with 0.1 nM [125I]MCP-1 on fresh human PBMC, filtration and scintillation counting

IC50 [1]: ~0.004 µg/mL and ~0.02 nM | IC50 [2]: 0.04 µg/mL and ~0.2 nM
B1: murine monoclonal antibody LS132.1D9 (1D9) (antibody, V domains shown)
VH: EVQLVESGGGLVQPKGSLKLSCAASGFSFNAYAMNWVRQAPGKGLEWVARIRTKNNNYATYYADSVKDRYTISRDDSESMLFLQMNNLKTEDTAMYYCVTFYGNGVWGTGTTVTVSS
VL: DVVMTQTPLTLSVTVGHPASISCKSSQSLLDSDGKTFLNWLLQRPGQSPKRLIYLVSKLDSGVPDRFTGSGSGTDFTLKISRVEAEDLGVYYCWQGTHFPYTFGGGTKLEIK
notes: Whole mouse monoclonal antibody from a hybridoma (supernatant or antibody); Kappa light chain; The controls are called isotype-matched and murine IgG2a, which implies IgG2a; also called mAb 1D9; mus-1D9
